Target: 破伤风标准毒素 (破伤风毒素蛋白) (Clostridium tetani, UniProt P04958 2-1315)
Sequence (P04958 2-457 limits assumed, chain 1 of 2): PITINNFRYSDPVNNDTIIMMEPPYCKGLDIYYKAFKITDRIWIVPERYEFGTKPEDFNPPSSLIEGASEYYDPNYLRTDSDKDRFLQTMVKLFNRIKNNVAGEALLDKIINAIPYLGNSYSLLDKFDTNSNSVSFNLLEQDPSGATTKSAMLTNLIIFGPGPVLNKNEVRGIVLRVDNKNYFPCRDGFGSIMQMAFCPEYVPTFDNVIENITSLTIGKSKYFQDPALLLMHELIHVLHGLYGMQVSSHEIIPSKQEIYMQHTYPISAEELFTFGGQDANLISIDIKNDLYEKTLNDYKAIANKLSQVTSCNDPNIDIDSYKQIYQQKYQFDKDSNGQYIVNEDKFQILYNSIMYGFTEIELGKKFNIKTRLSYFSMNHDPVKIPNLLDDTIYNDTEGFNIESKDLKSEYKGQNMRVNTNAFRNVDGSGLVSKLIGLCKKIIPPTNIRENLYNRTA
Sequence (P04958 458-1315 limits assumed, chain 2 of 2): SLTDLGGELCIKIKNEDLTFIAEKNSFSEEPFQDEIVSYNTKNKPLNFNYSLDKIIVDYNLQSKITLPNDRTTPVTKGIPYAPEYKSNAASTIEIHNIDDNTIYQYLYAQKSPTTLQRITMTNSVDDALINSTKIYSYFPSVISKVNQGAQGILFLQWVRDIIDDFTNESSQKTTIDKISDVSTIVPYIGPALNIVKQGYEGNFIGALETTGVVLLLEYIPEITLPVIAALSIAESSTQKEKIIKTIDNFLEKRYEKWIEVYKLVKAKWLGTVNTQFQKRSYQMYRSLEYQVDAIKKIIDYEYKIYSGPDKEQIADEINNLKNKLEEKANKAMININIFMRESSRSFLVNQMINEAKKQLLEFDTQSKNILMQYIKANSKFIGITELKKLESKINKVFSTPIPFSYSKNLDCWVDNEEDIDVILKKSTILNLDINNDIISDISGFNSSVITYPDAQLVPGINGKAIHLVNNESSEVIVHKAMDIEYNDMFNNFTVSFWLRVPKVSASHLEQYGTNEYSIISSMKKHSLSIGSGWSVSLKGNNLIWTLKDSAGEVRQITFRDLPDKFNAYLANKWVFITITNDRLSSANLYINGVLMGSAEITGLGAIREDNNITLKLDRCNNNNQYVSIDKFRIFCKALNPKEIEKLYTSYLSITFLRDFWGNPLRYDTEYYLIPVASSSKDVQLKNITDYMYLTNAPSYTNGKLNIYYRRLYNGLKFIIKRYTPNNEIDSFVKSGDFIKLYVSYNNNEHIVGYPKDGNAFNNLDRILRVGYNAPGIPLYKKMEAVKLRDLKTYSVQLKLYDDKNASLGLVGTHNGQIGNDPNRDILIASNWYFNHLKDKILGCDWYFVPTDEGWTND

B1: TRN0011抗体 (全人源抗破伤风毒素中和抗体) (antibody, V domains shown)
VH: QVQLQESGAGLVKPSETLSLTCGVAGGPFTGSYLSWIRQPPGKGLEWIGEVSQSGSTSYNPSLKSRVTISVDTSKSQFSLKLSSVTAADTAVYYCARLTKHYINSAYWGQGTLVTVSS
VL: DIQMTQSPSILSASVGDRVTITCRASQIIGSWLAWYQQKPGKAPTLVIYKASRLDSGVPSRFSGTESGTEFTLTISSLQPDDFATYYCQQYNSYPYTFGQGTKLEIK
B1 was tested, and the Kd was 0.905 nM, the koff was 3.87e-05 s⁻¹ and the kon was 42700 M⁻¹ s⁻¹.
